Publication PMC4987244 (Cancer research, 2016)
Numbering of substitutions follows the chain as printed. In names and notes the source's numbering stands. Read-outs that look alike come from different tables or passages of the source. Blank lines part the entries; values can stand above or below the binder they belong to.

Key:
[1] = biological target: T1, HA-tagged PRL1 expressed in HEK293 cells, Q93096; assay: cross-linking; settings: remark: other sources report otherwise
T1 chain: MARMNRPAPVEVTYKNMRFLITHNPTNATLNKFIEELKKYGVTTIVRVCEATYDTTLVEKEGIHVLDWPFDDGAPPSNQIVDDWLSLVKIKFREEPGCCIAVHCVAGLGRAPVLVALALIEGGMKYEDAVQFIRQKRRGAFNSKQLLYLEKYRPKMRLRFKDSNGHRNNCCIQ

cross-linking = biological target: the molecule itself; assay: cross-linking
[2] = biological target: the molecule itself

stoichiometry N [1]: 3
B1: HA-tagged PRL1 expressed in HEK293 cells, Q93096 1-173 (enzyme)
chain: T1 chain

B2: PRL1 (phosphatase of regenerating liver 1), recombinant wild type (enzyme)
chain: MNRPAPVEVTYKNMRFLITHNPTNATLNKFIEELKKYGVTTIVRVCEATYDTTLVEKEGIHVLDWPFDDGAPPSNQIVDDWLSLVKIKFREEPGCCIAVHCVAGLGRAPVLVALALIEGGMKYEDAVQFIRQKRRGAFNSKQLLYLEKYRPKMRLRF
stoichiometry N (cross-linking): 3

B3: PRL1/F132A, recombinant (enzyme)
chain: B2 chain with F129A
stoichiometry N (cross-linking): 3

B4: PRL1/Y14A, recombinant (enzyme)
chain: B2 chain with Y11A
stoichiometry N (cross-linking): 3

B5: PRL2 (enzyme, UniProt Q12974 1-167, looked up)
chain: MNRPAPVEISYENMRFLITHNPTNATLNKFTEELKKYGVTTLVRVCDATYDKAPVEKEGIHVLDWPFDDGAPPPNQIVDDWLNLLKTKFREEPGCCVAVHCVAGLGRAPVLVALALIECGMKYEDAVQFIRQKRRGAFNSKQLLYLEKYRPKMRLRFRDTNGHCCVQ
stoichiometry N [2]: 3
